Data reported in patent US11304964B2, “Bolaamphiphilic compounds, compositions and uses thereof” (priority 2012, dated 2022).

Experiments:
[1] = Tenofovir encapsulation in bolaamphiphile vesicles (UV absorbance after Sephadex G50 separation); type: physicochemical; conditions: vesicles with vs without SA, Sephadex G50, absorbance at 260 nm
Experimental: Bolaamphiphiles, cholesterol, and CHMES (2:1:1 mole ratio) are dissolved in chloroform or a suitable solvent. […] The solvents are evaporated under vacuum and the resultant thin films are hydrated in 0.2 mg/mL CF solution in PBS and probe-sonicated (Vibra-Cell VCX130 sonicator, Sonics and Materials Inc., Newtown, Conn., USA) with amplitude 20%, pulse on: 15 sec, pulse off: 10 sec to achieve homogenous vesicle dispersions. Vesicle size and zeta potential were determined using a Zetasizer Nano ZS (Malvern Instruments, UK).
Methods were established to determine quantitatively the amount of the encapsulated tenofovir based on a UV absorption and determined the percent of tenofovir encapsulation by various vesicle formulations (data not shown). […] One objective of this work was to achieve the maximum amount of tenofovir encapsulated per vesicle along with a minimum loss of the non-encapsulated drug. Accordingly, several parameters were examined, such as varying the ratio among the vesicle components, changing the ratio of tenofovir to bolaamphiphiles, varying the pH of the hydration solution and also adding to the formulation additional additives, in the attempt to increase the encapsulation capacity of the vesicles.
In particular, in order to maximize tenofovir encapsulation the following parameters were studied: (1) tenofovir to GLH ratio; (2) adjusting the concentrations of cholestyrl hemisuccinate (CHEM) and cholesterol (CHOL), components that are used in the vesicle formulation, (3) examining several buffers and pHs in the encapsulation process, (4) time of sonication, and (5) tenofovir concentration, and (6) addition of stearyl amine to the vesicle formulation to enhance encapsulation by complexation with tenofovir.
The vesicles were prepared from formulations with and without SA and the non-encapsulated tenofovir (free tenofovir) was separated from the encapsulated tenofovir on Sephadex G50 column and the absorbance at 260 nm of each fraction collected from the column was read.

[2] = Fluorescence in cerebral cortex after i.v. injection of albumin-FITC; type: in vivo; conditions: mouse cerebral cortex fluorescence
Source text: FIG. 5A: Fluorescence in mouse cerebral cortex after i.v. injection of albumin-FITC (non-encapsulated) FIG. 5B: Fluorescence in mouse cerebral cortex after i.v. injection of albumin-FITC encapsulated in GLH-20 vesicles.

For CCCCCCCCCCCCCCCCCCN [SA, stearyl amine], the “effect of stearyl amine on tenofovir encapsulation” value [1] was “increase tenofovir encapsulation”.

In the case of “Albumin-FITC: FITC-labelled protein albumin”, the “delivery to the brain” value ([2]; encapsulated in GLH-20 vesicles) is reported as “delivered successfully to the brain” and the brain accumulation ([2]; un-encapsulated) is reported as “little, if any, brain accumulation”.
